PMC4379501

T1: cyclo[RGDfK] cell adhesive peptide, surface-bound, light-activated from c[RGD(DMNPB)fK]
T1 chain: RGDFK


Biological target: T1, cyclo[RGDfK] cell adhesive peptide, …
Experiment: QCM-D; cells (3 × 10^5 cells/ml) injected over a gold-coated quartz crystal carrying a c[RGD(DMNPB)fK]-terminated PEG-thiol SAM, sedimented in stopped flow, peptide activated in situ by LED (360 nm, 1.35 mW cm^-2, 30 s); Δf1 = frequency drop within the first minute after irradiation; 37°C, PBS; also with 10 μM cytochalasin D or 10 μM anti-αVβ3 antibody
Details: remark: other sources report otherwise

| Δf1 [Hz] | Binder |
| --- | --- |
| 0.966 | integrin αVβ3 on human umbilical vein endothelial cells (HUVEC), P06756 31-1048; P05106 27-788 (receptor, here or on the partner: cyclic peptide (cyclo); f = D-phenylalanine) chain 1: FNLDVDSPAEYSGPEGSYFGFAVDFFVPSASSRMFLLVGAPKANTTQPGIVEGGQVLKCDWSSTRRCQPIEFDATGNRDYAKDDPLEFKSHQWFGASVRSKQDKILACAPLYHWRTEMKQEREPVGTCFLQDGTKTVEYAPCRSQDIDADGQGFCQGGFSIDFTKADRVLLGGPGSFYWQGQLISDQVAEIVSKYDPNVYSIKYNNQLATRTAQAIFDDSYLGYSVAVGDFNGDGIDDFVSGVPRAARTLGMVYIYDGKNMSSLYNFTGEQMAAYFGFSVAATDINGDDYADVFIGAPLFMDRGSDGKLQEVGQVSVSLQRASGDFQTTKLNGFEVFARFGSAIAPLGDLDQDGFNDIAIAAPYGGEDKKGIVYIFNGRSTGLNAVPSQILEGQWAARSMPPSFGYSMKGATDIDKNGYPDLIVGAFGVDRAILYRARPVITVNAGLEVYPSILNQDNKTCSLPGTALKVSCFNVRFCLKADGKGVLPRKLNFQVELLLDKLKQKGAIRRALFLYSRSPSHSKNMTISRGGLMQCEELIAYLRDESEFRDKLTPITIFMEYRLDYRTAADTTGLQPILNQFTPANISRQAHILLDCGEDNVCKPKLEVSVDSDQKKIYIGDDNPLTLIVKAQNQGEGAYEAELIVSIPLQADFIGVVRNNEALARLSCAFKTENQTRQVVCDLGNPMKAGTQLLAGLRFSVHQQSEMDTSVKFDLQIQSSNLFDKVSPVVSHKVDLAVLAAVEIRGVSSPDHVFLPIPNWEHKENPETEEDVGPVVQHIYELRNNGPSSFSKAMLHLQWPYKYNNNTLLYILHYDIDGPMNCTSDMEINPLRIKISSLQTTEKNDTVAGQGERDHLITKRDLALSEGDIHTLGCGVAQCLKIVCQVGRLDRGKSAILYVKSLLWTETFMNKENQNHSYSLKSSASFNVIEFPYKNLPIEDITNSTLVTTNVTWGIQPAPMPVPVWVIILAVLAGLLLLAVLVFVMYRMGFFKRVRPPQEEQEREQLQPHENGEGNSET chain 2: GPNICTTRGVSSCQQCLAVSPMCAWCSDEALPLGSPRCDLKENLLKDNCAPESIEFPVSEARVLEDRPLSDKGSGDSSQVTQVSPQRIALRLRPDDSKNFSIQVRQVEDYPVDIYYLMDLSYSMKDDLWSIQNLGTKLATQMRKLTSNLRIGFGAFVDKPVSPYMYISPPEALENPCYDMKTTCLPMFGYKHVLTLTDQVTRFNEEVKKQSVSRNRDAPEGGFDAIMQATVCDEKIGWRNDASHLLVFTTDAKTHIALDGRLAGIVQPNDGQCHVGSDNHYSASTTMDYPSLGLMTEKLSQKNINLIFAVTENVVNLYQNYSELIPGTTVGVLSMDSSNVLQLIVDAYGKIRSKVELEVRDLPEELSLSFNATCLNNEVIPGLKSCMGLKIGDTVSFSIEAKVRGCPQEKEKSFTIKPVGFKDSLIVQVTFDCDCACQAQAEPNSHRCNNGNGTFECGVCRCGPGWLGSQCECSEEDYRPSQQDECSPREGQPVCSQRGECLCGQCVCHSSDFGKITGKYCECDDFSCVRYKGEMCSGHGQCSCGDCLCDSDWTGYYCNCTTRTDTCMSSNGLLCSGRGKCECGSCVCIQPGSYGDTCEKCPTCPDACTFKKECVECKKFDRGALHDENTCNRYCRDEIESVKELKDTGKDAVNCTYKNEDDCVVRFQYYEDSSGKSILYVVEEPECPKGPDILVVLLSVMGAILLIGLAALLIWKLLITIHDRKEFAKFEEERARAKWDTANNPLYKEATSTFTNITYRGT |
| 0.913 | integrin αVβ3 on stable OV-MZ-6 cell transfectants overexpressing integrin αVβ3, P06756 31-1048; P05106 27-788 (receptor, here or on the partner: cyclic peptide (cyclo); f = D-phenylalanine) chain 1: FNLDVDSPAEYSGPEGSYFGFAVDFFVPSASSRMFLLVGAPKANTTQPGIVEGGQVLKCDWSSTRRCQPIEFDATGNRDYAKDDPLEFKSHQWFGASVRSKQDKILACAPLYHWRTEMKQEREPVGTCFLQDGTKTVEYAPCRSQDIDADGQGFCQGGFSIDFTKADRVLLGGPGSFYWQGQLISDQVAEIVSKYDPNVYSIKYNNQLATRTAQAIFDDSYLGYSVAVGDFNGDGIDDFVSGVPRAARTLGMVYIYDGKNMSSLYNFTGEQMAAYFGFSVAATDINGDDYADVFIGAPLFMDRGSDGKLQEVGQVSVSLQRASGDFQTTKLNGFEVFARFGSAIAPLGDLDQDGFNDIAIAAPYGGEDKKGIVYIFNGRSTGLNAVPSQILEGQWAARSMPPSFGYSMKGATDIDKNGYPDLIVGAFGVDRAILYRARPVITVNAGLEVYPSILNQDNKTCSLPGTALKVSCFNVRFCLKADGKGVLPRKLNFQVELLLDKLKQKGAIRRALFLYSRSPSHSKNMTISRGGLMQCEELIAYLRDESEFRDKLTPITIFMEYRLDYRTAADTTGLQPILNQFTPANISRQAHILLDCGEDNVCKPKLEVSVDSDQKKIYIGDDNPLTLIVKAQNQGEGAYEAELIVSIPLQADFIGVVRNNEALARLSCAFKTENQTRQVVCDLGNPMKAGTQLLAGLRFSVHQQSEMDTSVKFDLQIQSSNLFDKVSPVVSHKVDLAVLAAVEIRGVSSPDHVFLPIPNWEHKENPETEEDVGPVVQHIYELRNNGPSSFSKAMLHLQWPYKYNNNTLLYILHYDIDGPMNCTSDMEINPLRIKISSLQTTEKNDTVAGQGERDHLITKRDLALSEGDIHTLGCGVAQCLKIVCQVGRLDRGKSAILYVKSLLWTETFMNKENQNHSYSLKSSASFNVIEFPYKNLPIEDITNSTLVTTNVTWGIQPAPMPVPVWVIILAVLAGLLLLAVLVFVMYRMGFFKRVRPPQEEQEREQLQPHENGEGNSET chain 2: GPNICTTRGVSSCQQCLAVSPMCAWCSDEALPLGSPRCDLKENLLKDNCAPESIEFPVSEARVLEDRPLSDKGSGDSSQVTQVSPQRIALRLRPDDSKNFSIQVRQVEDYPVDIYYLMDLSYSMKDDLWSIQNLGTKLATQMRKLTSNLRIGFGAFVDKPVSPYMYISPPEALENPCYDMKTTCLPMFGYKHVLTLTDQVTRFNEEVKKQSVSRNRDAPEGGFDAIMQATVCDEKIGWRNDASHLLVFTTDAKTHIALDGRLAGIVQPNDGQCHVGSDNHYSASTTMDYPSLGLMTEKLSQKNINLIFAVTENVVNLYQNYSELIPGTTVGVLSMDSSNVLQLIVDAYGKIRSKVELEVRDLPEELSLSFNATCLNNEVIPGLKSCMGLKIGDTVSFSIEAKVRGCPQEKEKSFTIKPVGFKDSLIVQVTFDCDCACQAQAEPNSHRCNNGNGTFECGVCRCGPGWLGSQCECSEEDYRPSQQDECSPREGQPVCSQRGECLCGQCVCHSSDFGKITGKYCECDDFSCVRYKGEMCSGHGQCSCGDCLCDSDWTGYYCNCTTRTDTCMSSNGLLCSGRGKCECGSCVCIQPGSYGDTCEKCPTCPDACTFKKECVECKKFDRGALHDENTCNRYCRDEIESVKELKDTGKDAVNCTYKNEDDCVVRFQYYEDSSGKSILYVVEEPECPKGPDILVVLLSVMGAILLIGLAALLIWKLLITIHDRKEFAKFEEERARAKWDTANNPLYKEATSTFTNITYRGT |
